T1: recombinant human WNT3A, P56704
T1 chain: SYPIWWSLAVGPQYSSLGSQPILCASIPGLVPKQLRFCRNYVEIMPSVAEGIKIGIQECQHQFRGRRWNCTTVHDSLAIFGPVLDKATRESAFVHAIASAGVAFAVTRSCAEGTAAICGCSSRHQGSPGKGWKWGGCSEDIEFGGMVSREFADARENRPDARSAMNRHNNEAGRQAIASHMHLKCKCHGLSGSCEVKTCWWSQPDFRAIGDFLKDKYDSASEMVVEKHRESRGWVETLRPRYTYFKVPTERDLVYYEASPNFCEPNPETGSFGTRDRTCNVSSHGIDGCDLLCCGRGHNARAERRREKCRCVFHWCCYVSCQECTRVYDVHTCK

T2: KRM2N-FLAG-6xHIS (human, UniProt Q8NCW0 26-364)
T2 construct: extracellular domain; Negative control; also called human Kremen2; not shown: carboxyl FLAG tag and 6xHIS tag
T2 sequence (looked up): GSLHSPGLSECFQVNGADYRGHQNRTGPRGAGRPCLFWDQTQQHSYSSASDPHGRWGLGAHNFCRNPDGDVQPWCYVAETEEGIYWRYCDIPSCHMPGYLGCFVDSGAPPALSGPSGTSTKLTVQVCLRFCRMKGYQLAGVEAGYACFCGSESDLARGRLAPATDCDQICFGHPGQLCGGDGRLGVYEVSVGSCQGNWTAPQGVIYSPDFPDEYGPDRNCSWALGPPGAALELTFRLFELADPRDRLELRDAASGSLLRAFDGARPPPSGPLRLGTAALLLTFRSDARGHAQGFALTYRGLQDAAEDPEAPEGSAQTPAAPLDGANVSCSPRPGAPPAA


Assays:
[1] = biological target: T1, recombinant human WNT3A, P56704
[2] = biological target: HA-Wnt3a
[3] = biological target: T2, KRM2N-FLAG-6xHIS; assay: co-immunoprecipitation from CM with an anti-FLAG antibody, Western blotting
Source text: (Y-BB) TIKI2, but not KRM2, interacts with Wnt3a, Xwnt8-Myc, Wnt5a, and Xwnt11. Wnt proteins were each co-expressed with KRM2N or TIKI2N (FLAG tagged) and CM were subjected to immunoprecipitation with an anti-FLAG antibody and Western blotting with indicated antibodies.
The rabbit polyclonal anti-LRP6 antibody has been described (Tamai et al., 2004). Other antibodies were used according to manufacturer's instructions. From Cell Signaling: the rabbit monoclonal anti-Wnt3a (#2721, 1:1000), anti-HA (#3724, 1:1000), anti-Wnt5a (#2530, 1:1000) and anti-FLAG (#8146, 1:2000), from Santa Cruz: anti-Dv12 (sc-13974, 1:1000), anti-HA (sc-7392, 1:1000), and anti-Myc (sc-40, 1:500), from BD Transduction Laboratories: anti-beta-catenin (610154, 1:2000), From Hybridoma Bank: anti-tubulin (E7, 1:5000). Anti-FLAG M2 (A2220) and anti-HA (A2095) Affinity gels are from Sigma Immunoblotting was performed as previously described (MacDonald et al., 2008). For indirect immunofluorescence experiments, HeLa cells were plated on glass coverslips in 12-well plates and transfected with HA*Tiki1 expression construct. To visualize Tiki1 proteins on the cell surface, live cells were incubated with the anti-HA antibody in the culture medium for 30 min. The coverslip was washed with PBS and fixed with 4% paraformaldehyde in PBS for 10 min at room temperature. […]

Binder | in vitro cleavage, mass spectrometry [1] | in vitro cleavage of purified HA-Wnt3a by purified protein (Western blotting) [2] | binding result [3]
TIKI2N-FLAG-6xHIS (protein) RPQPPDGGQCRPPGSQRDLNSFLWTIRRDPPAYLFGTIHVPYTRVWDFIPDNSKAAFQASTRVYFELDLTDPYTISALASCQLLPHGENLQDVLPHELYWRLKRHLDYVKLMMPSWMTPAQRGKGLYADYLFNAIAGNWERKRPVWVMLMVNSLTERDVRFRGVPVLDLYLAQQAEKMKKTTGAVEQVEEQCHPLNNGLNFSQVLFALNQTLLQQESVRAGSLQASYTTEDLIKHYNCGDLSAVIFNHDTSQLPNFINTTLPPHEQVTAQEIDSYFRQELIYKRNERMGKRVMALLRENEDKICFFAFGAGHFLGNNTVIDILRQAGLEVDHTPAGQAIHSPAPQSPAPSPEGTSTSPAPVTPAAAVPEAPSVTPTAPPEDEDPALSPHLLLPDSLSQLEEFGRQRKWHKRQSTHQRPRQFNDLWVRIEDSTTASPPPLPLQPTHSSGTAKPPFQLSDQLQQQDPPG | MS analyses of recombinant human WNT3A cleaved by TIKI2N in vitro indicated cleavage at identical (major and minor) amino terminal sites as observed in cells | upon in vitro incubation with purified HA-Wnt3a, triggered Wnt3a cleavage and the disappearance of the HA epitope | –
TIKI2NΔ-FLAG-6xHIS (protein) RPQPPDGGQCRPPGSQRDLNSFLWTIRRDPPAYLFGTIHVPYTRVWDFIPDNSKAAFQASTRVYFELDLTDPYTISALASCQLLPHGENLQDVLPHELYWRLKRHLDYVKLMMPSWMTPAQRGKGLYADYLFNAIAGNWERKRPVWVMLMVNSLTERDVRFRGVPVLDLYLAQQAEKMKKTTGAVEQVEEQCHPLNNGLNFSQVLFALNQTLLQQESVRAGSLQASYTTEDLIKHYNCGDLSAVIFNHDTSQLPNFINTTLPPHEQVTAQEIDSYFRQELIYKRNERMGKRVMALLRENEDKICFFAFGAGHFLGNNTVIDILRQAGLEVDHTPAGQAIHSPAPQSPAPSPEGTSTSPAPVTPAAAVPEAPSVTPTAPPEDEDPALSPHLLLPDSLSQLEEFGRQRKWHKRQSTHQRPRQFNDLWVRIEDSTTASPPPLPLQPTHSSGTAKPPFQLSDQLQQQDPPG | – | failed to do so in the in vitro assay | –
Xwnt8-Myc (ligand, also called Xenopus wnt8; not shown: Myc tag) AWSVNNFLMTGPKAYLTYSASVAVGAQNGIEECKYQFAWERWNCPESTLQLATHNGLRSATRETSFVHAISSAGVMYTLTRNCSMGDFDNCGCDDSRNGRIGGRGWVWGGCSDNAEFGERISKLFVDGLETGQDARALMNLHNNEAGRLAVKETMKRTCKCHGISGSCSIQTCWLQLAEFRDIGNHLKIKHDQALKLEMDKRKMRSGNSADNRGAIADAFSSVAGSELIFLEDSPDYCLKNISLGLQGTEGRECLQSGKNLSQWERRSCKRLCTDCGLRVEEKKTEIISSCNCKFHWCCTVKCEQCKQVVIKHFCARRERDSNMLNTKRKNRGHRR | – | – | no binding
Xwnt11 (ligand, Xenopus, UniProt P49893 23-353, looked up) IQWLGLTVNGSRVAWNESEHCRLLDGLVPDQSQLCKRNLELMQSVVNAAKQTKLTCQMTLSDMRWNCSSVENAPSFTPDLSKGTRESAFVYALASATLSHTIARACASGELPTCSCGATPAEVPGTGFRWGGCGDNLHYGLNMGSAFVDAPMKSSKSAGTQATKIMNLHNNAVGRQVLMDSLETKCKCHGVSGSCSVKTCWKGLQDLPHIANELKSKYLGATKVIHRQTGTRRQLVPRELDIRPVRESELVYLVSSPDYCTKNPKLGSYGTQDRLCNKTSVGSDSCNLMCCGRGYNAYTETIVERCQCKYHWCCYVMCKKCERTVERYVCK | – | – | no binding

— patent US20150166671A1 (CHILDREN S MEDICAL CENTER, published 2015)
